Measurements taken from patent US20110177071A1 (PERSEID THERAPEUTICS, published 2011).

T1: human CD80-murine Ig fusion protein (human)
T1 construct: Bought (Ancell #510-820); also called hCD80-mIg; human CD80-murine IgG
T1 chain: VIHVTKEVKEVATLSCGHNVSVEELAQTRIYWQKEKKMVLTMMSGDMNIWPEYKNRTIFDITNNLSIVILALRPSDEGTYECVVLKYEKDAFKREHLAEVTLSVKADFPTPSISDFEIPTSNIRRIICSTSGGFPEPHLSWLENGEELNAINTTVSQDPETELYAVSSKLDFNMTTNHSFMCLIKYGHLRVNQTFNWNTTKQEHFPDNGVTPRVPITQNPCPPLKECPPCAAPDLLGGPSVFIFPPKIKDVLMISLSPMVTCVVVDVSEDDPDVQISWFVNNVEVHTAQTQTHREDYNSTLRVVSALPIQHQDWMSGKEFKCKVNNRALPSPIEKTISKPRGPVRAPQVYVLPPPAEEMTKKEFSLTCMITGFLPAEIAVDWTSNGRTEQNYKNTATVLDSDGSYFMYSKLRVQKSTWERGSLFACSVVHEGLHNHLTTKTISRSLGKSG

T2: human CD86-murine Ig fusion protein (human)
T2 construct: Bought (Ancell #509-820); also called hCD86-mIg
T2 chain: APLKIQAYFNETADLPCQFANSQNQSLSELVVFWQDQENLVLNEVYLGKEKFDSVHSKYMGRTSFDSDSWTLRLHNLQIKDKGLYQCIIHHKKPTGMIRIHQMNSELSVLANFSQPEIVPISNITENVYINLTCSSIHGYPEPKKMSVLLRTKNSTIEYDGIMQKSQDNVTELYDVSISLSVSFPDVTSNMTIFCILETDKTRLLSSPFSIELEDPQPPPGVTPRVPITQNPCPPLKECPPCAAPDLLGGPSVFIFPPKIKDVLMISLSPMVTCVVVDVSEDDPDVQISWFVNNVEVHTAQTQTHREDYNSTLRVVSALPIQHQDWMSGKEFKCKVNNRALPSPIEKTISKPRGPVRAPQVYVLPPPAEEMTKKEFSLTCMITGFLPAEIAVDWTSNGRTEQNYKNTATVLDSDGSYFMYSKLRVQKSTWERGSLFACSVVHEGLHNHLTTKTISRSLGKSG

T3: full-length human CD86 on HEK293 cells (human, UniProt P42081 24-329)
T3 sequence: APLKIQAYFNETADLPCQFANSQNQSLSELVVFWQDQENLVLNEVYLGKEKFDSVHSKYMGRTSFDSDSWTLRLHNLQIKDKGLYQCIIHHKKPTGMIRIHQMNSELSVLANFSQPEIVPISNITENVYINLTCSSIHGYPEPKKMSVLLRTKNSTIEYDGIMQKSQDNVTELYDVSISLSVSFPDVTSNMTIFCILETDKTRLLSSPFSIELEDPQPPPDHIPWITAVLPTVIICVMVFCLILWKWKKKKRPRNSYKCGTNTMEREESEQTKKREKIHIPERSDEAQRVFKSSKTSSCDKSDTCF

B1: D3-54-IgG2 (Fc fusion)
chain: MHVAQPAVVLASSRGIASFVCEYASPGKANEVRVTVLRQADSQVTEVCAMTYMKENELTFLDDPICTGTFSGNQVNLTIQGLRAMDTGLYICKVELMYPPPYYLGIGNGTQIYVIDPEPCPDSDERKCCVECPPCPAPPVAGPSVFLFPPKPKDTLMISRTPEVTCVVVDVSHEDPEVQFNWYVDGVEVHNAKTKPREEQFNSTFRVVSVLTVVHQDWLNGKEYKCKVSNKGLPAPIEKTISKTKGQPREPQVYTLPPSREEMTKNQVSLTCLVKGFYPSDIAVEWESNGQPENNYKTTPPMLDSDGSFFLYSKLTVDKSRWQQGNVFSCSVMHEALHNHYTQKSLSLSPG
B2: D3-65-IgG2 (Fc fusion)
chain: MHVAQPAVVLASSRGIASFVCEYASPGKANEVRVTVLRQADSQVTEVCAMTYMKGNELTFLDDPSCTGTFSGNQVNLTIQGLRAMDTGLYICKVELMYPPPYYEGIGNGTQIYVIDPEPCPDSDERKCCVECPPCPAPPVAGPSVFLFPPKPKDTLMISRTPEVTCVVVDVSHEDPEVQFNWYVDGVEVHNAKTKPREEQFNSTFRVVSVLTVVHQDWLNGKEYKCKVSNKGLPAPIEKTISKTKGQPREPQVYTLPPSREEMTKNQVSLTCLVKGFYPSDIAVEWESNGQPENNYKTTPPMLDSDGSFFLYSKLTVDKSRWQQGNVFSCSVMHEALHNHYTQKSLSLSPG
B3: D3-62-IgG2 (Fc fusion)
chain: MHVAQPAVVLASSRGIASFVCEYASPGKANEIRVTVLRQADSQVTEVCAMTYMKEDELTFLDDPSCTGTFSGNQVNLTIQGLRAMDTGLYICKVELMYPPPYYLGIGNGTQIYVIDPEPCPDSDERKCCVECPPCPAPPVAGPSVFLFPPKPKDTLMISRTPEVTCVVVDVSHEDPEVQFNWYVDGVEVHNAKTKPREEQFNSTFRVVSVLTVVHQDWLNGKEYKCKVSNKGLPAPIEKTISKTKGQPREPQVYTLPPSREEMTKNQVSLTCLVKGFYPSDIAVEWESNGQPENNYKTTPPMLDSDGSFFLYSKLTVDKSRWQQGNVFSCSVMHEALHNHYTQKSLSLSPG
B4: D3-56-IgG2 (Fc fusion)
chain: MHVAQPAVVLASSRGIASFVCEYASPGKANEVRVTVLRQADSQVTEVCAMTYMKENELTFLDDPSCTGTFSGNQVNLTIQGLRAMDTGLYICKVELMYPPPYYLGIGNGTQIYVIDPEPCPDSDERKCCVECPPCPAPPVAGPSVFLFPPKPKDTLMISRTPEVTCVVVDVSHEDPEVQFNWYVDGVEVHNAKTKPREEQFNSTFRVVSVLTVVHQDWLNGKEYKCKVSNKGLPAPIEKTISKTKGQPREPQVYTLPPSREEMTKNQVSLTCLVKGFYPSDIAVEWESNGQPENNYKTTPPMLDSDGSFFLYSKLTVDKSRWQQGNVFSCSVMHEALHNHYTQKSLSLSPG
B5: D3-69-IgG2 (Fc fusion)
chain: MHVAQPAVVLASSRGIASFVCEYESPGKANEIRVTVLRQADSQVTEVCAMTYMKGDELTFLDDPSCTGTFSGNQVNLTIQGLRAMDTGLYICKVELMYPPPYYEGIGNGTQIYVIDPEPCPDSDERKCCVECPPCPAPPVAGPSVFLFPPKPKDTLMISRTPEVTCVVVDVSHEDPEVQFNWYVDGVEVHNAKTKPREEQFNSTFRVVSVLTVVHQDWLNGKEYKCKVSNKGLPAPIEKTISKTKGQPREPQVYTLPPSREEMTKNQVSLTCLVKGFYPSDIAVEWESNGQPENNYKTTPPMLDSDGSFFLYSKLTVDKSRWQQGNVFSCSVMHEALHNHYTQKSLSLSPG

Assays:
[1] = target: T1, human CD80-murine Ig fusion protein; experiment: SPR Biacore, hCD80-mIg captured
Protocol: (§1) All Biacore™ analyses were performed on a Biacore™ 2000 system (GE Healthcare) at room temperature (RT, 25° C.). HBS-EP buffer (10 mM HEPES (pH 7.4), 150 mM NaCl, 3 mM EDTA, 0.005% surfactant P20) was used as the flow buffer for all experiments.
(§2) Rabbit anti-mouse IgG antibody (GE Healthcare, #BR-1005-14) was immobilized on CM5 sensor chips (GE Healthcare, #BR-1000-14) according to the manufacturer's protocol. Antibody was diluted to 30 μg/ml in immobilization buffer (10 mM sodium acetate, pH 5.0 (BR-1003-51)). At a flow rate of 5 μl/minute, sensor chip CM5 was activated with a 35 μl injection of a mixture of 1-Ethyl-3-[3-dimethylaminopropyl]carbodiimide hydrochloride (EDC) and N-hydroxysuccinimide (NHS) (made by mixing equal volumes of 11.5 mg/ml EDC and 75 mg/ml NHS) (GE Healthcare, #BR-1000-50), followed by a 35 μl injection of undiluted antibody. Un-reacted sites were quenched with 35 μl of 1M ethanolamine-HCL, pH 8.5 (GE Healthcare, #BR-1000-50). […] CTLA-4 ligands human CD80-murine Ig (hCD80-mIg) (Ancell, #510-820) or human CD86-murine Ig (hCD86-mIg) (Ancell, #509-820) were bound to antibody-coated sensor chips by injection of 10 μl or 16 μl, respectively, ligand solution (2 μg/ml protein in HBS-EP buffer [10 mM HEPES pH 7.4, 150 mM NaCl, 3 mM EDTA, 0.005% (v/v) surfactant P-20, GE Healthcare, #BR-1001-88]) at a flow rate of 10 μl/min.

[2] = target: T2, human CD86-murine Ig fusion protein; experiment: SPR Biacore, hCD86-mIg captured
Protocol: as §1, §2

[3] = target: T3, full-length human CD86 on HEK293 cells; experiment: cell-based or functional assay

| Kd [1] | Binding Avidity (Relative to Orencia) [2] | Kd [2] | Mean IC50 (nM), CD4+ T cell proliferation [3] | Binding Avidity (Relative to Orencia) [1] | Binder |
| --- | --- | --- | --- | --- | --- |
| 439 to 1750 pM | > 40 fold | < 131 pM | 0.04 nM |  | B1 |
| < 439 pM | > 40 fold | < 131 pM | 0.06 nM | > 2 fold | B2 |
| < 439 pM | > 40 fold | < 131 pM | 0.04 nM | > 2 fold | B3 |
| 439 to 1750 pM | > 40 fold | < 131 pM | 0.04 nM |  | B4 |
| < 439 pM | > 40 fold | < 131 pM | 0.03 nM | > 2 fold | B5 |
